The source of these data is article PMC10090947.

Experiment [1] deals with Large tumor suppressor 1 (LATS1), endogenous (UniProt O95835). In words: streptavidin affinity purification and MS (MS1 intensity). The following applies: three independent biological replicates; parent: est. -0.1; read off a plot.
Experiment [2] addresses nonreceptor tyrosine phosphatase 14 (PTPN14), endogenous (UniProt Q15678). The description is as above. To be noted: three independent biological replicates; parent: est. -0.1; read off a plot.
Chain of UniProt Q15678 (Q15678 whole entry): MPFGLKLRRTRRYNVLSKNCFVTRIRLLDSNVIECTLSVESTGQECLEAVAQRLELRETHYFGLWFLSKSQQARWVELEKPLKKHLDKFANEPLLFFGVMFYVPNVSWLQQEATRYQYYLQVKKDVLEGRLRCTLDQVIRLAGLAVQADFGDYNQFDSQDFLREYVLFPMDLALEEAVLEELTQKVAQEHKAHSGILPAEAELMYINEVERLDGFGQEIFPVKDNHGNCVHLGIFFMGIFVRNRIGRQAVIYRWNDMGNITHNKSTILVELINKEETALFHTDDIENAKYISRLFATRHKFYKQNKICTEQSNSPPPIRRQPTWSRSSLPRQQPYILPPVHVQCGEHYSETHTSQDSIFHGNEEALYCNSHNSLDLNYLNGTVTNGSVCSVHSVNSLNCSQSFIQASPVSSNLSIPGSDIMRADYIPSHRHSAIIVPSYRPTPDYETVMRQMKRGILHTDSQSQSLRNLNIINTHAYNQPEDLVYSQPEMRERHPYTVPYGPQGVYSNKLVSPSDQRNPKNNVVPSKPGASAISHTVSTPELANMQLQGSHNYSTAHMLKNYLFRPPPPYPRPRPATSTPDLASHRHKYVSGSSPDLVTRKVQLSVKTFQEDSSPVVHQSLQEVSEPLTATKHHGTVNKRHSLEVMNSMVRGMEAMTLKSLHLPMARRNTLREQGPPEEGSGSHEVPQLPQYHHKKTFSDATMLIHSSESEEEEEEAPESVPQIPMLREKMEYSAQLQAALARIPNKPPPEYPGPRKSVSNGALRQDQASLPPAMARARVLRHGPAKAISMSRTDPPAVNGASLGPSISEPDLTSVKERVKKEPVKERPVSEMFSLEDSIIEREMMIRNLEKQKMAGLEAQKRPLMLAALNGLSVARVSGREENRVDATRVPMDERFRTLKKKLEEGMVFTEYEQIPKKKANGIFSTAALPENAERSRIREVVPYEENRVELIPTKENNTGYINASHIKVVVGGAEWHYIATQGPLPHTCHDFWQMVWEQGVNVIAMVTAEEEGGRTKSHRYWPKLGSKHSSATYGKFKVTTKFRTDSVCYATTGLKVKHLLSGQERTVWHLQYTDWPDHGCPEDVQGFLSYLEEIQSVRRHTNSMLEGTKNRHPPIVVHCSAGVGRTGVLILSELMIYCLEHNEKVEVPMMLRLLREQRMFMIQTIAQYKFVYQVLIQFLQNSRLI
The target in experiment [3] is AMOTL1 (UniProt Q8IY63). In words: AP-MS (MS1 intensity). The following applies: parent: est. 34; read off a plot.
Chain of UniProt Q8IY63 (Q8IY63 whole entry): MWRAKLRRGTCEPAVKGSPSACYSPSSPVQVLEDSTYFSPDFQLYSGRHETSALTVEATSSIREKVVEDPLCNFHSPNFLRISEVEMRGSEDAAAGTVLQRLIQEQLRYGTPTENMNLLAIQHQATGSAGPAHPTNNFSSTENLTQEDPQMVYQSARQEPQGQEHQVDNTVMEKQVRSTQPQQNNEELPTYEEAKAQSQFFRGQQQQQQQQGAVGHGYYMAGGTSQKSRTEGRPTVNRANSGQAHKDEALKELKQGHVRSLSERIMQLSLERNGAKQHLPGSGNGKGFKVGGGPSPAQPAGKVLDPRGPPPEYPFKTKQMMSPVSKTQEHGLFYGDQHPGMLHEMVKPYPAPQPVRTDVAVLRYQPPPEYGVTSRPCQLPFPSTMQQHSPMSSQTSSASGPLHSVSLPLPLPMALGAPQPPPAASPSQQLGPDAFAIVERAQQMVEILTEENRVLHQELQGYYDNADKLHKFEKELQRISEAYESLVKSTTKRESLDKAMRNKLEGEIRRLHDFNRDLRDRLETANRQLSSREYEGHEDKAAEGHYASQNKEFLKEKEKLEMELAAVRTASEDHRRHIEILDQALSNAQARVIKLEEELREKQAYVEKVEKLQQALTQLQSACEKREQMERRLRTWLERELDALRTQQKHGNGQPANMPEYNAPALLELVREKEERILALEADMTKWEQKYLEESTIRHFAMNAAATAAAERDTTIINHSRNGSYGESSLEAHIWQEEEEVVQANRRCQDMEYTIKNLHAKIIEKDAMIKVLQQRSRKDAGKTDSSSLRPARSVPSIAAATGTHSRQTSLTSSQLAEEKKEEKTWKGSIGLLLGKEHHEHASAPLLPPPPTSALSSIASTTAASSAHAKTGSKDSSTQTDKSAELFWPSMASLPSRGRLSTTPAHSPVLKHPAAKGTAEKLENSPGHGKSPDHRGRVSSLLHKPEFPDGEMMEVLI
The target of experiment [4] is CCDC85C (UniProt A6NKD9). In words: AP-MS (MS1 intensity). The following applies: parent: est. 32; read off a plot.
Chain of UniProt A6NKD9 (A6NKD9 whole entry): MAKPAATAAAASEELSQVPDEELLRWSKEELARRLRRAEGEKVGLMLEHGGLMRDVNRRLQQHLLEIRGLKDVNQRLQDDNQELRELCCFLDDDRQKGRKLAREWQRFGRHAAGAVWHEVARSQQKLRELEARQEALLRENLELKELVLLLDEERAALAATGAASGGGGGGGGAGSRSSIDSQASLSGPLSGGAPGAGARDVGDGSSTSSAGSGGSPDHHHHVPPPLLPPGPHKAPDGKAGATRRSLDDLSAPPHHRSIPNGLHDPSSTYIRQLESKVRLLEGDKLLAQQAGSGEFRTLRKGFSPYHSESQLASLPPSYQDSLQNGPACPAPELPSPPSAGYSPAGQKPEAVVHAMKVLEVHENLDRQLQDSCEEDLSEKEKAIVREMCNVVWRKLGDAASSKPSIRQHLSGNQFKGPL
Experiment [5] addresses TP53BP2 (UniProt Q13625). The experiment in a line: AP-MS (MS1 intensity). To be noted: parent: est. 33; read off a plot.
Chain of UniProt Q13625 (Q13625 whole entry): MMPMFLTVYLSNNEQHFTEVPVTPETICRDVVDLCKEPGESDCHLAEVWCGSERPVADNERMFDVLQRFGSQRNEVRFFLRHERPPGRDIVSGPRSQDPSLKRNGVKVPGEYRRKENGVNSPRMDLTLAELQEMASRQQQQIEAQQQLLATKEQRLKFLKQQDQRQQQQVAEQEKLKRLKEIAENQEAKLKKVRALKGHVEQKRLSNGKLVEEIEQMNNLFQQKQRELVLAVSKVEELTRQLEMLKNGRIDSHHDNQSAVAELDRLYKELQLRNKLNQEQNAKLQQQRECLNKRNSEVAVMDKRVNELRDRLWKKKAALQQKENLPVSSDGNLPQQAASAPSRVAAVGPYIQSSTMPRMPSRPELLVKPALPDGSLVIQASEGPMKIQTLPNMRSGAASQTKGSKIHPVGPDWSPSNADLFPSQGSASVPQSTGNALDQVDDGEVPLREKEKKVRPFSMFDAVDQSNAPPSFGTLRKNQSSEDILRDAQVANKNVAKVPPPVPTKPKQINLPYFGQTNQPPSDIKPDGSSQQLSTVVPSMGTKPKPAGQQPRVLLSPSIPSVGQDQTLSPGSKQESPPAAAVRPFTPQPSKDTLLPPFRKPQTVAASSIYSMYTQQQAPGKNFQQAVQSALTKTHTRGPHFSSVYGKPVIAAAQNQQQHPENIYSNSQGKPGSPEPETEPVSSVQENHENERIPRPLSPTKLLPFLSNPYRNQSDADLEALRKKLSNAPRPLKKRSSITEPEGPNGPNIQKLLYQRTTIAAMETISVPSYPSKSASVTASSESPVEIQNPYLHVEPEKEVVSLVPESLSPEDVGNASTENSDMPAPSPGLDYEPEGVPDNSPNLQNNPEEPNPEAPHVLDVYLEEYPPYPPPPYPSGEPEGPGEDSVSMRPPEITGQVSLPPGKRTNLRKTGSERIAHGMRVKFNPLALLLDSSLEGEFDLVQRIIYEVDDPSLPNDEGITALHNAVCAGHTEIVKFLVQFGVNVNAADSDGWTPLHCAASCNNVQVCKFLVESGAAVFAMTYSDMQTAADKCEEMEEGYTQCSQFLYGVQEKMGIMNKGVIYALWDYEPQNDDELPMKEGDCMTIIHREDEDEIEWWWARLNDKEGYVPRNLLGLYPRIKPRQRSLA
For experiment [6], the target named is Large tumor suppressor 1 (LATS1), endogenous (UniProt O95835). In words: Strep AP-MS. To be noted: three biological replicates; parent: est. 0.0; read off a plot.
The target of experiment [7] is nonreceptor tyrosine phosphatase 14 (PTPN14), endogenous (UniProt Q15678). In words: Strep AP-MS. To be noted: three biological replicates; parent: est. 0.0; read off a plot.

Chain of UniProt O95835 (O95835 whole entry): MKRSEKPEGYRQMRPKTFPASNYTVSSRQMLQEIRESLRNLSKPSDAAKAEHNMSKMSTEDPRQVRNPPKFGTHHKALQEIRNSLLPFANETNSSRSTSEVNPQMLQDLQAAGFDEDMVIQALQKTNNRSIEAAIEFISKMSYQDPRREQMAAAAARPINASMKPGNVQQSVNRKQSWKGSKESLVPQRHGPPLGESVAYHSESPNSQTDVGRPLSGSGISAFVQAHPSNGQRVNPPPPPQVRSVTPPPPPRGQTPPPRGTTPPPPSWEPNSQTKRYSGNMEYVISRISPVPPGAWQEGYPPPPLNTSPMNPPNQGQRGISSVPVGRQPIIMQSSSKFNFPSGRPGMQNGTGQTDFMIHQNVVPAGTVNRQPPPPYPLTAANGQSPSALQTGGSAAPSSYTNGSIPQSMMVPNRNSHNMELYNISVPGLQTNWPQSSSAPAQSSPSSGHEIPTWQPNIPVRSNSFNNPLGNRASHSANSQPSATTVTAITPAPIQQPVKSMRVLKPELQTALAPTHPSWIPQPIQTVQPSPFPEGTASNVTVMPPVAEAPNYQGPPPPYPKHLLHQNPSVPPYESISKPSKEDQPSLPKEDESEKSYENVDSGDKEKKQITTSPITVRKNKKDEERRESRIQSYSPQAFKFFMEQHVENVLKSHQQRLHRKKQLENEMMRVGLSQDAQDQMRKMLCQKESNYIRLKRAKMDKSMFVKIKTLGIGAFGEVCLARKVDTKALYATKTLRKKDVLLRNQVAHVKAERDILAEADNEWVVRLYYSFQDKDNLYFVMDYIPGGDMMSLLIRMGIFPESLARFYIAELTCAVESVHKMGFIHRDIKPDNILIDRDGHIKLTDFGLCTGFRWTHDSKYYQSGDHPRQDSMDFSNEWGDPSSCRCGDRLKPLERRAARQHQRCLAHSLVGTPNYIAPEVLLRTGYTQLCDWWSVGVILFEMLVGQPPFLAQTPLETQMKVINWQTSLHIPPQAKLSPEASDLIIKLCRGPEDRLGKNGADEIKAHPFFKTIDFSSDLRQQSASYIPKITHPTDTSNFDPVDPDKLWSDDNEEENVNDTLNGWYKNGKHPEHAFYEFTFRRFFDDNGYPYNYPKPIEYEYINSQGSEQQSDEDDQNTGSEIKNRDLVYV

With Strep‐HA YAP1 (wild type) 5SA, the other: log2(mutant vs WT) is -0.6 in experiment [1] and 0 in experiment [2].
Consider Strep‐HA YAP1 (wild type) S367A, for which the figures for the response (log2(Intensity)) in experiment [3], in experiment [4] and in experiment [5] were 34, 28 and 30, respectively.
In the case of Strep‐HA YAP1 (wild type) ΔWW1, the other: log2(mutant vs WT) was -7.2 in experiment [6], -3.4 in experiment [7], -7.2 in experiment [1] and -3.4 in experiment [2].
On to Strep‐HA YAP1 (wild type) ΔWW1/2, for which the other: log2(mutant vs WT) was -7 in experiment [6], -9.2 in experiment [7], -7 in experiment [1] and -9.2 in experiment [2].
Strep‐HA YAP1 (wild type) ΔWW2: the other: log2(mutant vs WT) in experiment [6] is -3.6; in experiment [7], -7.7; in experiment [1], -3.6; in experiment [2], -7.7.
